Test results published in US20160200813A1.
Residue numbers refer to the chain shown, from its start.

B1: humanized ML199-11H1.5B2VH.1/VL.1 (antibody, V domains shown)
VH: EVQLVESGGGLVKPGGSLRLSCAASRFTFSNYGMSWVRQAPGKGLEWVSTISSGGRYTYYPDSVKGRFTISRDNAKNSLYLQMNSLRAEDTAVYYCARDYLYAMDYWGQGTTVTVSS
VL: DIVMTQSPLSLPVTPGEPASISCRSSQSLVYSNGNTYLHWYLQKPGQSPQLLIYKVSNRFSGVPDRFSGSGSGTDFTLKISRVEAEDVGVYYCSQSTHVPLTFGQGTKLEIK
B2: humanized ML199-11H1.5B2VH.1/VL.1b (antibody, V domains shown)
VH: B1 VH
VL: B1 VL with I2V, L51V
B3: humanized ML199-11H1.5B2VH.1a/VL.1b (antibody, V domains shown)
VH: B1 VH with S49A
VL: B1 VL with I2V, L51V
B4: humanized ML199-11H1.5B2VH.1a/VL.1a (antibody, V domains shown)
VH: B1 VH with S49A
VL: B1 VL with I2V, L51V, I53M, Y92F
B5: humanized ML199-11H1.5B2VH.1a/VL.1 (antibody, V domains shown)
VH: B1 VH with S49A
VL: B1 VL
B6: anti-LRP-8 BGK-9D10-2 antibody (CL-105967) (antibody, V domains shown)
VH: EVQLVESGGGLVQSGRSLKLSCAASGFTFSNYYMAWVRQAPKKGLEWVATITTSGSRSFYPDSVKGRFTISRDNAKSSLYLQINSLKSEDTATYYCARRGPLGYFDHWGRGVMVTVSS
VL: DIQMTQSPPSLPASLGDKVTITCQASQNINKYIAWYQQKPGKAPRLLIRFTSTLESDTPSRFSGSGSGRDYSFSISNVESEDFASYYCLHYDNLPPWTFGGGTKLELK
B7: anti-LRP-8 BGK-7F7 chimeric antibody (CL-105960) (antibody, V domains shown)
VH: QVTLKESGPGILQPSQTLSLTCTFSGFSLSTYGLGVGWIRQPSGKGLEWLANIWWDDAKYYNPSLKNRLTISKDTSNNQAFLKIPNVDTADTARYYCARTTKPYYFDYWGQGVMVTVSS
VL: HFVLAQPNSVSTNLGSTVKLSCKRSTANIGSNYVNWYQQHEGRSPTTLIYRDDRRPDGVPDRFSGSIDRSSNSALLTINNVQTEDEADYFCQSYSSGINIFGGGTKLTVL
B8: anti-LRP-8 BGK-6B5-2 chimeric antibody (CL-105969) (antibody, V domains shown)
VH: B7 VH with T3S, K5Q, Y32F, L34M, A58D, P85T, R94T, T101A, Q111H
VL: B7 VL with S16N, A27G, R54K, I67F, S95N, I100F
B9: anti-LRP-8 BGK-7A11 chimeric antibody (CL-105959) (antibody, V domains shown)
VH: B7 VH with L34M, S43A, K45T, A58D, A80V, P85T, R94T
VL: B7 VL with A27G, I29S, H40Y, L48M, R54K
B10: anti-LRP-8 BGK.2C8.E6.D3 [r/m IgG2a/K] (antibody, V domains shown)
VH: QVTLKESGPGILQPSQTLSLTCTFSGFSLNTYGMGVGWVRQPSGKGLEWLANIWWDDDKFYNPSLKNRLTVSKDTSNNQAFLRITNGDTADTATYFCARILGEDIGGALDAWGQGTSVTVSS
VL: DTVLTQSPALAVSPGERVSISCRASEGVNSYMHWYQQNPGQQSKLLIYRTSNLASGVPARFGGSGSGTDFTLTIDPVEADDTATYFCQQSWNDPPTFGGGTKLELK
B11: anti-LRP-8 BGK.5D10.E4 [r/m IgG2a/K] (antibody, V domains shown)
VH: QVQLRETGPDLVQPTQTLSLTCTVSGFSLTNYPVQWVRQPPGSGLEWLGIMWPSGAADFNPALKSRLSISRDTSKSQFFLRMDNLQTDDTAIYFCARGRGYSSPYAMDAWGQGTSVTVSS
VL: DIQMTQSPASLSASLGETVSIECLASEDIYNNLAWYQQKPGKSPHLLIHFTSNLQDGVPSRFSGSGSGTQYSLKINSLESEDGATYFCLQDSEYPLTFGSGTKLEIK

The binders below were run against Mouse LRP-8 expressed on HEK293 cells (mouse) (UniProt Q924X6) (assay: mLRP8 cell binding).

EC50	Binder
22.4 nM	B1
7.92 nM	B2
19.6 nM	B3
41.8 nM	B4
6.83 nM	B5

What follows are binders tested against Mouse LRP-8 expressed on HEK293 cells (mouse) (UniProt Q924X6) (assay: cell-based binding assay, mLRP8).

EC50	Binder
0.43 nM	B6
3.92 nM	B7
41.8 nM	B8
27.6 nM	B9

What follows are binders tested against Mouse LRP-8 expressed on HEK293 cells (mouse) (UniProt Q924X6) (assay: cell-based binding on MOUSE LRP8-HEK293, supernatant 1:5).

fold over isotype control	Binder
0.19 fold	B10
0.04 fold	B11

What follows are binders tested against Mouse LRP-8 expressed on HEK293 cells (mouse) (UniProt Q924X6) (assay: cell-based binding on MOUSE LRP8-HEK293, supernatant 1:25).

fold over isotype control	Binder
0.45 fold	B10
0.16 fold	B11

These binders were tested against Mouse LRP-8 expressed on HEK293 cells (mouse) (UniProt Q924X6) (assay: cell-based binding on MOUSE LRP8-HEK293, supernatant 1:125).

fold over isotype control	Binder
0.43 fold	B10
0.16 fold	B11
